Test results taken from PMC9565801 (Science Advances, 2022).
Positions count from the first letter of the chain named. Numbers in names are those of the source.

B1: ketosteroid isomerase (KSI) Y32F/Y57F from Pseudomonas putida (enzyme)
chain: MNLPTAQEVQGLMARYIELVDVGDIEAIVQMFADDATVEDPFGQPPIHGREQIAAFFRQGLGGGKVRACLTGPVRASHNGCGAMPFRVEMVWNGQPCALDVIDVMRFDEHGRIQTMQAYWSEVNLSVREPQ
B2: ketosteroid isomerase (KSI) Y57F from Pseudomonas putida (enzyme)
chain: B1 chain with F32Y

Biological target: the molecule itself
Assay: crystal structure

Protein | stoichiometry N
B1 | 2
B2 | 2
